Consider two substances from publication PMC9943664.

This series relates to MBP-DDX3X (human). The series is described as follows: EMSA. As to conditions: DDX3X EMSA: 40 mM Tris-Cl pH 8, 50 mM NaCl, 0.5 mM MgCl2, 2 mM DTT, 0.01% NP40, 2 mM AMP-PNP/MgCl2, 37 C 30 min, UV 254 nm 3 min, 6% native PAGE in 0.5x TB + …. For orientation: Mobility shift assays separate free from complexed probe on a gel.

Take endogenous tRNA-LysUUU/CUU: the Kd (native post-transcriptional modifications (not listed)) is 83.4 nM.
Regarding synthetic tRNA-LysUUU, the Kd (none (unmodified)) is 431 nM.

The Kd is the free concentration of one partner at which half of the binding sites on the other are occupied at equilibrium, for simple one-to-one binding.
